Target: T1, recombinant human EZH2 protein, biotinylated (human, UniProt Q15910 1-746, biotin (Biotinylation Kit, Thermo Scientific 21329))
T1 construct: Enhancer of zeste homolog 2 (EZH2), human recombinant protein, Origene TP302054; check the vendor's sheet; also called rhEZH2; source: bought: Origene (TP302054), biotinylated and desalted
Experiment: BLI; OctetRED; his-tagged rhRcn3 (5 µg/ml) immobilised on NTA biosensors; biotinylated rhEZH2 at 262.3, 131.1, 65.56 and 32.78 µg/ml in binding buffer; association and dissociation for 10 min at 25 °C
Details: both partners purified

T1 sequence (Q15910 whole entry): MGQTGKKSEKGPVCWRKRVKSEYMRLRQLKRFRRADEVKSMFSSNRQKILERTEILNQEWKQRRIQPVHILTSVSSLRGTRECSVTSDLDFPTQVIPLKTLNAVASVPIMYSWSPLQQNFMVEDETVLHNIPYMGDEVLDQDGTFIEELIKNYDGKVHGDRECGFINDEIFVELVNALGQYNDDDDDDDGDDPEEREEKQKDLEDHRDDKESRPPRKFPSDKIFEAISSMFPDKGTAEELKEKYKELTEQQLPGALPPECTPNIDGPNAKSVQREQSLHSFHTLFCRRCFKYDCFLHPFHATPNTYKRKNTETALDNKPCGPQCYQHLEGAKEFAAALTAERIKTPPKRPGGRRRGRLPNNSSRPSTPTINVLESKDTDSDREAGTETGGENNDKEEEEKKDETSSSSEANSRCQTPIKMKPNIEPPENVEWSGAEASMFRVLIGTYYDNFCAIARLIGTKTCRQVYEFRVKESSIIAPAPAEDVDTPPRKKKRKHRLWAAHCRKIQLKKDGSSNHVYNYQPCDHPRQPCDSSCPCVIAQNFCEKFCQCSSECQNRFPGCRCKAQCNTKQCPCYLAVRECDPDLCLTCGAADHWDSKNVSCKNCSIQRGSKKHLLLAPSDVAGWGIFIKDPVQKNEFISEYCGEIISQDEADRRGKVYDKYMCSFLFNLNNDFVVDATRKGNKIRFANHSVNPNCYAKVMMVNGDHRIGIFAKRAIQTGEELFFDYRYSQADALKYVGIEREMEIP

Kd: 1540 nM
B1: recombinant human Rcn3 with his-tag (natural protein, UniProt Q96D15 21-328, looked up)
chain: KPSPDAGPHGQGRVHQAAPLSDAPHDDAHGNFQYDHEAFLGREVAKEFDQLTPEESQARLGRIVDRMDRAGDGDGWVSLAELRAWIAHTQQRHIRDSVSAAWDTYDTDRDGRVGWEELRNATYGHYAPGEEFHDVEDAETYKKMLARDERRFRVADQDGDSMATREELTAFLHPEEFPHMRDIVIAETLEDLDRNKDGYVQVEEYIADLYSAEPGEEEPAWVQTERQQFRDFRDLNKDGHLDGSEVGHWVLPPAQDQPLVEANHLLHESDTDKDGRLSKAEILGNWNMFVGSQATNYGEDLTRHHDEL
notes: Reticulocalbin 3 (RCN3), human recombinant protein, Abcam ab276552; Construct limits are those of the vendor's product; also called rhRcn3; hrRcn3; source: bought: Abcam (ab276552)
